Changes are numbered by the printed parent chain.

This is an account of results in patent US20180051081A1 (published 2018).

B1: Clone 18 (pVxK7b-037-hum18-LC / pVxK7b-037-hum18-HC) (antibody, human IgG1, kappa, V domains shown)
VH: EVQLVQSGAEVKKPGESLRISCKGSGYTFTNYYVFWIRQSPSRGLEWLGDINPVNGDTNFNEKFKNRVTITADKSTSTAYMELSSLRSEDTAVYYCARGGYTMDYWGQGTLVTVSS
VL: EIVLTQSPATLSVSPGERATLSCRSSQSLVHSNGNTYLHWYQQKPGQAPRLLIYKVSYRFSGVPSRFSGSGSGTDFTFTISSLEAEDAATYYCSQNTHVPRTFGQGTKVEIKR
B2: Clone 7 (pVxK7b-037-hum07-LC / pVxK7b-037-hum07-HC) (antibody, human IgG1, kappa, V domains shown)
VH: QVQLQESGPGLVKPGATVKISCKVSGYTFTNYYVFWVRQARGQRLEWIGDINPVNGDTNFNEKFKNRVTITADKSTSTAYMELSSLRSEDTAVYYCARGGYTMDYWGQGTLVTVSS
VL: DIVMTQTPLSLPVTPGEPASISCRSSQSLVHSNGNTYLHWYLQKPGQSPQLLIYKVSYRFSGVPDRFSGSGSGTDFTLKISRVEAEDVGVYYCSQNTHVPRTFGQGTKVEIKR
B3: Clone 11 (pVxK7b-037-hum11-LC / pVxK7b-037-hum11-HC) (antibody, human IgG1, kappa, V domains shown)
VH: B2 VH
VL: B1 VL
notes: also called Cl 11
B4: Clone 12 (pVxK7b-037-hum12-LC / pVxK7b-037-hum12-HC) (antibody, human IgG1, kappa, V domains shown)
VH: B2 VH
VL: B2 VL with L42Q, Q47K, S48A, Q50K
B5: Clone 16 (pVxK7b-037-hum16-LC / pVxK7b-037-hum16-HC) (antibody, human IgG1, kappa, V domains shown)
VH: QVQLQESGPGLVKPSQTLSLTCTVSGYTFTNYYVFWVRQARGQRLEWIGDINPVNGDTNFNEKFKNRVTISADKSISTAYLQWSSLKASDTAMYYCARGGYTMDYWGQGTLVTVSS
VL: AIQLTQSPSSLSASVGDRVTITCRSSQSLVHSNGNTYLHWYQQKPGQAPRLLIYKVSYRFSGVPDRFSGSGSGTDFTLKISRVEAEDVGVYYCSQNTHVPRTFGQGTKVEIKR
B6: Clone 17 (pVxK7b-037-hum17-LC / pVxK7b-037-hum17-HC) (antibody, human IgG1, kappa)
light: AIQLTQSPSSLSASVGDRVTITCRSSQSLVHSNGNTYLHWYQQKPGQAPRLLIYKVSYRFSGVPDRFSGSGSGTDFTLKISRVEAEDVGVYYCSQNTHVPRTFGQGTKVEIKRTVAAPSVFIFPPSDEQLKSGTASVVCLLNNFYPREAKVQWKVDNALQSGNSQESVTEQDSKDSTYSLSSTLTLSKADYEKHKVYACEVTHQGLSSPVTKSFNRGEC
heavy: not shown
B7: Clone 8 (pVxK7b-037-hum08-LC / pVxK7b-037-hum08-HC) (antibody, human IgG1, kappa)
light: DIVMTQTPLSLPVTPGEPASISCRSSQSLVHSNGNTYLHWYQQKPGKAPKLLIYKVSYRFSGVPDRFSGSGSGTDFTLKISRVEAEDVGVYYCSQNTHVPRTFGQGTKVEIKRTVAAPSVFIFPPSDEQLKSGTASVVCLLNNFYPREAKVQWKVDNALQSGNSQESVTEQDSKDSTYSLSSTLTLSKADYEKHKVYACEVTHQGLSSPVTKSFNRGEC
heavy: not shown

T4 sequence (Q08722 19-323): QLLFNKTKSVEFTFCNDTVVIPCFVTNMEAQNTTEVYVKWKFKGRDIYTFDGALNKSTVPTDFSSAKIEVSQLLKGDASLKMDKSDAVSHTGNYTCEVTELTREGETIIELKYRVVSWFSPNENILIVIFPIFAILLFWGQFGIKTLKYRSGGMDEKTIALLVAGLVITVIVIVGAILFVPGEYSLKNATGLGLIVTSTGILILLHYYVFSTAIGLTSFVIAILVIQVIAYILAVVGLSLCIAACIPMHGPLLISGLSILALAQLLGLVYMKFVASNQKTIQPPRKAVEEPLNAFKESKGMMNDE

The target in one experiment is T1, dog CD47 (dog, UniProt A0A8I3PM61 19-310).
T1 construct: also called CD47 on dog RBCs
T1 sequence: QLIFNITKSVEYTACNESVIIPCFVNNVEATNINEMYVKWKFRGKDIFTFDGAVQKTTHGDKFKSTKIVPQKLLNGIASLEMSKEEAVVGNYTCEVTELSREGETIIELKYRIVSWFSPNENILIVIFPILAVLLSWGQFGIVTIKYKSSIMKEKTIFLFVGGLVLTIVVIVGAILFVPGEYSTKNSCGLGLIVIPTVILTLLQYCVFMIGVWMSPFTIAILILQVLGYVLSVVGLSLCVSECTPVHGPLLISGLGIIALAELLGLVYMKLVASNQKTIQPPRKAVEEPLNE
Put plainly: FACS, dog RBCs, supernatant 10 ng/ml. The procedure: (§1) RBCs are incubated for 60 minutes on ice with tissue culture supernatants containing the secreted humanized antibodies at a concentration of 10 ng/ml in a solution of phosphate buffered saline, pH 7.2, 2.5 mM EDTA (PBS+E), or with various concentrations of purified antibodies. Cells are then washed with cold PBS+E, and incubated for an additional hour on ice with FITC labeled donkey anti-human antibody (Jackson Immuno Research Labs, West Grove, Pa.; Catalogue #709-096-149) in PBS+E. Cells are then washed with PBS+E, and antibody binding is analyzed using a BD FACSAria Cell Sorter (Becton Dickinson) or a C6 Accuri Flow Cytometer (Becton Dickinson). Antibody binding is quantitated by comparison of mean fluorescence values relative to that of chimeric antibody >VxP037-01LC (SEQ ID NO:7))/>VxP037-01HC (SEQ ID NO:57). The mean fluorescence value for each antibody is divided by the mean fluorescence value for the chimeric antibody.
As to B1, the “mean fluorescence relative to chimera” value was found to be 1.5.
Regarding B2, the “mean fluorescence relative to chimera” value came out at 0.8.
With B3, the “mean fluorescence relative to chimera” value was 0.8.
For the molecule B4, the “mean fluorescence relative to chimera” value is 0.9.
In the case of B5, the “mean fluorescence relative to chimera” value was found to be 1.1.
With B6, the “mean fluorescence relative to chimera” value is 1.3.
The same measure, in the same setting: the result for B7 reads 0.8.

The target of the next experiment is T2, pig CD47 (pig, UniProt Q9GKE8 19-303).
T2 construct: whole, on cells; also called CD47 on porcine RBCs
T2 sequence (looked up): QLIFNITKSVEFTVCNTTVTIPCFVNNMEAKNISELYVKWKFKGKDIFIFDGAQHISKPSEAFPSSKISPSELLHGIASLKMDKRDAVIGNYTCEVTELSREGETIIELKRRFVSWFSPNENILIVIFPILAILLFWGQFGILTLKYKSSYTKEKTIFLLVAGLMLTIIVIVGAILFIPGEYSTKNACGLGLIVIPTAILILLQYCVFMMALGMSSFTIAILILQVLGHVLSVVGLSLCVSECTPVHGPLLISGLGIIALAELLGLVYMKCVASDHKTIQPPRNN
The experiment can be described thus: FACS, pig RBCs, supernatant 10 ng/ml. The method, then: as §1
A general note: In flow cytometry, cells or beads pass a laser one at a time.
On to B1, for which the “mean fluorescence relative to chimera” value came to 1.2.
Take B2: the “mean fluorescence relative to chimera” value came to 0.9.
Same read-out and setting: the result for B3 reads 1.2; that for B4, 1.4.
Consider B5, for which the “mean fluorescence relative to chimera” value was 1.1.
For B6, the “mean fluorescence relative to chimera” value was determined as 1.3.
As to B7, the “mean fluorescence relative to chimera” value was determined as 0.8.

The target of another experiment is T3, rat CD47 (rat, UniProt P97829 19-303).
T3 construct: whole, on cells; also called CD47 on rat RBCs
T3 sequence (looked up): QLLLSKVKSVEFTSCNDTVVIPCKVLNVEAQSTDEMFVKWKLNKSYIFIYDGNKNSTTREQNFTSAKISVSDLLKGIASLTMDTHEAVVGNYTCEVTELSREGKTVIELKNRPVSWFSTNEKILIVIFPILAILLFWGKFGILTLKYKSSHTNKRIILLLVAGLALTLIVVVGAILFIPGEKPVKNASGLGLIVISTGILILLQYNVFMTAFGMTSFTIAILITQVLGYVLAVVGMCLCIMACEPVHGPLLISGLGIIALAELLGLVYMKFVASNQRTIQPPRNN
Put plainly: FACS, rat RBCs, supernatant 10 ng/ml. The procedure: as §1
Turning to B1, the “mean fluorescence relative to chimera” value was 2.2.
Consider B2, for which the “mean fluorescence relative to chimera” value is 0.8.
Turning to B3, the “mean fluorescence relative to chimera” value was found to be 1.2.
On the same count and under the same terms, the figure for B4 is 1.3; for B5 it is 2.1; for B6 it is 2.1.
In the case of B7, the “mean fluorescence relative to chimera” value stood at 1.2.

A further experiment has as its target T4, human CD47 (human, UniProt Q08722 19-323).
T4 construct: whole, on cells; also called CD47 on human RBCs; CD47 on OV10 cells
Put plainly: FACS, human RBCs, supernatant 10 ng/ml. The procedure:
as §1
On to B1, for which the “mean fluorescence relative to chimera” value came out at 1.
B2: the “mean fluorescence relative to chimera” value is 0.5.
On to B3, for which the “mean fluorescence relative to chimera” value is 0.8.
Still for that read-out and setting: the figure for B4 is 0.8; for B5 it is 0.9; for B6 it is 0.8.
In the case of B7, the “mean fluorescence relative to chimera” value is 0.7.

The next experiment concerns the target T5, mouse CD47 (mouse, UniProt Q61735 19-303).
T5 construct: whole, on cells; also called CD47 on mouse RBCs; CD47 on 4T1 cells
T5 sequence (looked up): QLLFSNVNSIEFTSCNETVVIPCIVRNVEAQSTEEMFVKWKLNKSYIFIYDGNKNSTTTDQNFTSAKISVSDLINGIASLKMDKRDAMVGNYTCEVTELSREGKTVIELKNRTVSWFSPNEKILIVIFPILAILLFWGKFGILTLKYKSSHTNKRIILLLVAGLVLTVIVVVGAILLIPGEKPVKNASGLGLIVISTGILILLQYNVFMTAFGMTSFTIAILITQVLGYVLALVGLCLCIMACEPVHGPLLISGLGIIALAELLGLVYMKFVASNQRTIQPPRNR
Put plainly: FACS, mouse RBCs, supernatant 10 ng/ml. The procedure: as §1
Consider B1, for which the “mean fluorescence relative to chimera” value came out at 1.3.
Turning to B2, the “mean fluorescence relative to chimera” value amounted to 0.4.
Consider B3, for which the “mean fluorescence relative to chimera” value came out at 0.7.
Turning to B4, the “mean fluorescence relative to chimera” value came to 0.6.
As for B5, the “mean fluorescence relative to chimera” value was found to be 1.
On the same count and under the same terms, the figure for B6 is 0.9; for B7 it is 0.7.
